In patent CN101098892A (HOFFMANN LA ROCHE, dated 2008):
Residue numbers refer to the chain shown, from its start. Each block holds one molecule with its values, some of them ahead of it.

Experiments:
[1] = target: 猕猴IL-13Rα1 (转染的Ba/F3细胞) (猕猴 (Cyno)); assay: FACS, transfected against parental Ba/F3 cells, secondary antibody alone
[2] = target: 猕猴IL-13Rα1 (转染的Ba/F3细胞) (猕猴 (Cyno)); assay: FACS on Ba/F3 cells transfected with cynomolgus IL-13Rα1, secondary antibody alone
[3] = target: IL-13Rα1 (人B细胞、单核细胞、TF-1细胞、HFL-1细胞、支气管平滑肌细胞上) (human) (UniProt P78552); assay: cell-based or functional assay
[4] = target: 猕猴IL-13Rα1 (转染的Ba/F3细胞) (猕猴 (Cyno)); assay: FACS on Ba/F3 cells transfected with cynomolgus IL-13Rα1
[5] = target: 猕猴IL-13Rα1 (转染的Ba/F3细胞) (猕猴 (Cyno)); assay: FACS, transfected against parental Ba/F3 cells
[6] = target: 人IL-13Rα1 (表达人IL-13Rα1和人IL-4Rα的CHO细胞) (human) (UniProt P78552); assay: displacement of 125I-IL-13 from CHO cells expressing human IL-13Rα1 and IL-4Rα
[7] = target: 猕猴IL-13Rα1 (转染的Ba/F3细胞) (猕猴 (Cyno)); assay: FACS on Ba/F3 cells transfected with cynomolgus IL-13Rα1, negative control
[8] = target: 猕猴IL-13Rα1 (转染的Ba/F3细胞) (猕猴 (Cyno)); assay: FACS, transfected against parental Ba/F3 cells, negative control
[9] = target: T1, IL-13Rα1 (人B细胞、单核细胞、TF-1细胞、HFL-1细胞、支气管平滑肌细胞上) (human, UniProt P78552 22-427); assay: cell-based or functional assay
T1 sequence (looked up): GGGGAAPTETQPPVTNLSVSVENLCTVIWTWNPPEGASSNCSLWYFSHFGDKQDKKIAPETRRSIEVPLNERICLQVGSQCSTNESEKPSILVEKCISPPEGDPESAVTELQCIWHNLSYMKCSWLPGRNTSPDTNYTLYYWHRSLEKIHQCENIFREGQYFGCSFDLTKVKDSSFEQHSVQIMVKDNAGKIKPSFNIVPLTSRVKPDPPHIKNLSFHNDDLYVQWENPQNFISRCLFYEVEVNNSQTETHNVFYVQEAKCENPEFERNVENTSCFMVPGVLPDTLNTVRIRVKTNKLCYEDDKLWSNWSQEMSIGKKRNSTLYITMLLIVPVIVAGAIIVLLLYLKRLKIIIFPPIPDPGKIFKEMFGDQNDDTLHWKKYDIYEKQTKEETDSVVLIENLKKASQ

[10] = target: 猕猴IL-13Rα1 (转染的Ba/F3细胞) (猕猴 (Cyno)); assay: FACS on Ba/F3 cells transfected with cynomolgus IL-13Rα1, 10 μg/ml antibody
[11] = target: T2, 从hIL-13Rα1:hFc嵌合蛋白切割的hIL-13Rα1的细胞外结构域 (human, UniProt P78552 22-343); assay: SPR Biacore 3000, C1 chip, antibody captured by anti-hFcγ, cleaved hIL-13Rα1 ECD as analyte, 1:1 Langmuir
T2 construct: extracellular domain; also called 切割的hIL-13Rα1分子
T2 sequence (looked up): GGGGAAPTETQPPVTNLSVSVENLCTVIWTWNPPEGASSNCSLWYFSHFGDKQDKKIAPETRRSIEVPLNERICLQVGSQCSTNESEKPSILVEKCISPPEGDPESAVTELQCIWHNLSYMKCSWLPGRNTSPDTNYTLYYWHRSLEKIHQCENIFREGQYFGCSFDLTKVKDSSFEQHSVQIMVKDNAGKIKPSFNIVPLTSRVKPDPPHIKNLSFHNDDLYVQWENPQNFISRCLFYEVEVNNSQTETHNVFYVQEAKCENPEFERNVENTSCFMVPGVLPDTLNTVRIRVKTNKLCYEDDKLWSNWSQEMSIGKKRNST

[12] = target: 猕猴IL-13Rα1 (转染的Ba/F3细胞) (猕猴 (Cyno)); assay: FACS, transfected against parental Ba/F3 cells; remark: listed apart in the source
[13] = target: 猕猴IL-13Rα1 (转染的Ba/F3细胞) (猕猴 (Cyno)); assay: FACS on Ba/F3 cells transfected with cynomolgus IL-13Rα1, 10 μg/ml antibody; remark: listed apart in the source

Molecule: 仅抗人IgG-FITC (antibody)
在Cyno IL-13Rα1存在下MFI的增加倍数 [1]: 2.2
MFIBa/F3 Cyno IL-13Rα1 [2]: 5.5 MFI

Molecule: 多克隆山羊抗人IL-13Rα1抗体AF152(R&D Systems) (antibody)
B淋巴细胞上CD23上调的抑制 IC50 [3]: 13.6 nM
IL-4诱导的增殖的IC50 [3]: 74.4 nM
IL-13诱导的Stat-6磷酸化的抑制 IC50 [3]: 18.6 nM
IL-13诱导的TF-1细胞增殖的抑制 IC50 [3]: 13.5 nM
人单核细胞上IL-13诱导的CD23上调的抑制 IC50 [3]: 62.9 nM
抑制嗜曙红粒细胞趋化因子释放 平均IC50 [3]: 11.5 nM
MFIBa/F3 Cyno IL-13Rα1 [4]: 21.2 MFI
在Cyno IL-13Rα1存在下MFI的增加倍数 [5]: 18
IC50 [6]: 84.8 nM

Molecule: 正常人IgG1(Nordic) (antibody)
MFIBa/F3 Cyno IL-13Rα1 [7]: 10.2 MFI
在Cyno IL-13Rα1存在下MFI的增加倍数 [8]: 6.7

B2: HuMab LC5002-003 (antibody, V domains shown)
VH: EVQLLESGGDLIQPGGSLRLSCAASGFTFNIYAMNWVRQAPGKGLEWVSVISGRGITTYYADSVKGRFTISRDNSKNTLYLQMDSLRAEDTAVYYCAKGSSYWTDFDYWGQGTLVTVSS
VL: DIQMTQSPSSLSASVGDRVTITCRASQGISSWLAWYQQKPEKAPKSLIYAASSLQSGVPSRFSGSGSGTDFTLTISSLQPEDFATYYCQQYNSYPWTFGQGTKVEIK
IL-13诱导的Stat-6磷酸化的抑制 IC50 [9]: 5.98 nM
IL-13诱导的TF-1细胞增殖的抑制 IC50 [9]: 3.07 nM
在Cyno IL-13Rα1存在下MFI的增加倍数 [5]: 79
MFIBa/F3 Cyno IL-13Rα1 [13]: 82.4 MFI

The next lines start with the values.

MFIBa/F3 Cyno IL-13Rα1 [7]: 5.7 MFI
在Cyno IL-13Rα1存在下MFI的增加倍数 [8]: 2.4
Molecule: 正常山羊IgG (antibody)

IL-13诱导的TF-1细胞增殖的抑制 IC50 [9]: 9.21 nM
MFIBa/F3 Cyno IL-13Rα1 [10]: 83.7 MFI
Kd [11]: 0.62 nM
koff [11]: 0.00065 s⁻¹
kon [11]: 1.1e+06 M⁻¹ s⁻¹
在Cyno IL-13Rα1存在下MFI的增加倍数 [12]: 79.8
B1: HuMab LC5002-002 (antibody, human IgG1, V domains shown)
VH: EVQLLESGGGLVQPGGSLRLSCAASGFTFNIYAMNWVRQAPGKGLEWVVISGRGITTYYADSVKGRFTISRDNSKNTLYLQMNSLRADDTAVYYCAKGSSSWTDFDYWGQGTLVTVSS
VL: B2 VL with S31R, L33V
notes: Human IgG1 kappa antibody from a HuMab mouse hybridoma; also called hu-MAB<h-IL-13Ralpha>LC.5002-002 (DSM ACC2709)
